# In the supplement of paper PMC12764529:
# ± gives the half width of the 95% confidence interval.
# How the values were obtained:
# [1] = folding stability dG unfold from trypsin proteolysis; higher = more stable
# Outline: (§1)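 Only designs with AlphaFold2 dimer inter-PAE above 15 were retained; each was a mini-protein under 80 residues with no cysteine, in a PA-tagged cDNA display construct. After digestion with trypsin and chymotrypsin and sequencing, K50 was inferred by Bayesian fitting of counts, and unfolding free energy was derived per protease or combined against a sequence-predicted unfolded-state K50 and a shared folded-state K50.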
# [2] = folding stability dG unfold from chymotrypsin proteolysis; higher = more stable
# Outline: as §1
# [3] = folding stability dG unfold (combined trypsin and chymotrypsin); higher = more stable
# Outline: as §1
Sequence,folding stability dG unfold [1] [kcal/mol],folding stability dG unfold [2] [kcal/mol],folding stability dG unfold [3] [kcal/mol]
SAGGSAGGSAGGSKYIVIRIPGSVDELIDYLRDSGFKIKIESVEYDPPNGEFYVVFKIKSAGGSAGGSAGGS [r4_315_TrROS],2.53 ± 0.073,3.063 ± 0.025,2.87 ± 0.052
SAGGSAGGSAGKIIFERDEDGYLRAIVYDPKTKEVYVRRFKVKDGKITEVETERINLKDLSAGGSAGGSAGG [r11_167_TrROS_Hall],2.06 ± 0.049,2.37 ± 0.078,2.21 ± 0.1
IRGMPVEEIKEIARDFFRKHGMKVTTVEIVPTPNGMTQVDIEIEPPDKGRRYRIDIYVPEDGMVQIDIEPYS [r1_460_TrROS],2.23 ± 0.071,2.54 ± 0.13,2.4 ± 0.24
SAGGSAGGSAGSTILIKNEDGSLLLVTVSDGSITIERLPPAPPPKTYEKDPETKEWREVTSAGGSAGGSAGG [r11_590_TrROS_Hall],1.06 ± 0.021,0.647 ± 0.063,0.878 ± 0.057
SAGGSAGGSAGGPKIVRIAGNPETGILIIEFENGEKKVIELKQEEADKLAKENPGVEVLTSAGGSAGGSAGG [r7_175_TrMRF],1.03 ± 0.059,0.433 ± 0.056,0.777 ± 0.11
SAGGSAGGSAKKITIYLPNAEVVEVEYDEETDVITIRVKNEDGSEYEFRFYPDGSVEIRPVSAGGSAGGSAG [r3_348_TrROS_Hall],2.95 ± 0.16,3.65 ± 0.15,3.4 ± 0.14
SPRIEVRKLPDGTELVRIEIPTPEGNPVVVEATVTYDPETGTVTQEVTLTDPNVPPEVKALLESFTLTVPSA [r9_715_JUSTAS],1.12 ± 0.019,1.54 ± 0.028,1.4 ± 0.042
SAGGSAGGSAGVKEGEEIEITLENGKTFTAKIEYDKETGYYKITIKDKKTNKEYEFVFKVSAGGSAGGSAGG [r11_960_TrROS_Hall],2.62 ± 0.3,4.39 ± 0.17,4.04 ± 0.22
SAGGSAGGSMSVTLVKVERDPANNTITVTIKLPSGETAFTKTVAPGTTVTITFPDGTVLTVTESAGGSAGGS [r12_441_JUSTAS],3.12 ± 0.078,3.1 ± 0.035,3.07 ± 0.061
PIIHFRSPEDAEDFVKELVKKIAKEARKNGDPGQPYEIKIPVVWHDEDSGGPHRFPIEIEIRPDGDIKLTFS [r1_316_TrROS],0.782 ± 0.02,1.76 ± 0.088,1.42 ± 0.062
SAGGLVLPPDAVVTGTLTAPRPDGSTVTVRARVRFPPRPPPPPLVLVRLPDGSVRPVRSLEEARRLASAGGS [r16_580_TrMRF],3.16 ± 0.11,3.76 ± 0.059,3.49 ± 0.1
SAGGSAGGSAGGSEKEVEISVVLPDGYVLRVRVREVSEDGEEVEVEVELVKVKPGQKLLSAGGSAGGSAGGS [r4_72_TrROS_Hall],1.57 ± 0.051,1.37 ± 0.079,1.5 ± 0.15
SAGGSAGGSAGGMGINVTVSEEVSVLPDPSVVRVTTTTKTPDGTTTVTEEVIPGPEELESAGGSAGGSAGGS [r10_1221_JUSTAS],-0.15 ± 0.045,1.47 ± 0.099,1.2 ± 0.075
SAGGSMKVFVFEVKVEVEVKLDKDGNLTVEIKKVEVKPVKKIPLSEEELEKLREAKKKGLTLEEILSAGGSA [r2_327_TrROS_Hall],2.07 ± 0.11,3.26 ± 0.1,2.78 ± 0.18
SAGPAVVIPLPLDPEKWSPEEILEAAIKLAEEAYKAGLPGSVTLLVPVPEKPLLITIDPKTGKITVDPSAGG [r19_204_TrMRF],1.49 ± 0.083,1.73 ± 0.066,1.63 ± 0.072
SAGGSAGGSAGVSTTPDGVLVIKVKDPNTGKYTEIKVPTSRPEEAEKLKEKALEEGLELESAGGSAGGSAGG [r11_538_JUSTAS],0.708 ± 0.038,1.49 ± 0.022,1.2 ± 0.053
SAGGSAGGSWMLMVKIEFPENGQERHFMLPPGMTIEDIADRLREDGAPIKDIEVQWMPLPPGDSAGGSAGGS [r12_955_TrROS],1.47 ± 0.033,1.62 ± 0.086,1.62 ± 0.072
SAGHQIVKRLARHMQEQGYPIEVDVTVEPYPDDGWVEITIDIEMQNEDGKWQPIGPITIYIPKEDANKLSAG [r5_413_TrROS],0.914 ± 0.07,1.44 ± 0.11,1.34 ± 0.17
SAGGSAGGSAGGSVTVERYPDGKVTTTTTDPTRPVTTVTLAEVEPGPGKVLTETVTPVPSAGGSAGGSAGGS [r10_613_JUSTAS],0.835 ± 0.057,1.3 ± 0.14,1.12 ± 0.1
SAMPLLVKVTFYPKDPVTGIPSEEIEEKEVPDIEEAIKEVKKKLPKDNSAKIEVLDENGKLLKTIDLNLSAG [r14_234_JUSTAS],0.721 ± 0.029,0.885 ± 0.11,0.845 ± 0.12
SAGGSAGGSMTAEELAKAFPNLPKEEITEIRVEKNEDGTITVTITVKNKNGEKIEIKVEIKLESAGGSAGGS [r12_1050_TrROS_Hall],1.34 ± 0.097,2.16 ± 0.067,2.03 ± 0.1
